The target of this assay is recombinant Heme Detoxification Protein (PfHDP) (Plasmodium falciparum) (UniProt Q8IL04). Description: SPR.

As a reminder, the Kd is the free concentration of one partner at which half of the binding sites on the other are occupied at equilibrium, for simple one-to-one binding.

On to “recombinant C-terminal Plasmodium falciparum exportin 2 (Pfexp-2), amino acids 139-285 (domain or fragment)”, for which the Kd worked out at 1100 nM.

The values are drawn from publication doi:10.1101/2021.08.02.454712.
